According to the supplement of paper PMC9732359:
± gives the uncertainty stated by the source.

Experiment: protein stability index of a GFP-peptide fusion (yeast GPS) (PSI 1-4); higher = more stable; sorted into four equal gates, so the index is relative within each strain
Summary of the method: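 Plasmids isolated from each sorting gate were PCR-amplified and Illumina-sequenced, and barcodes assigned the reads to strains. The gates, four of equal size, were set by GFP/Cherry fluorescence ratio on mid-log cultures in leucine-free medium. These cultures were yeast carrying a pooled library of tiled 17-residue yeast protein peptides fused downstream of GFP on a plasmid that also expresses Cherry. The protein stability index is the sum of every gate's read frequency times its gate number.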

Sequence | protein stability index (doa10∆) | protein stability index (pdr5∆) | protein stability index (san1∆) | protein stability index (ubr1∆)
DSSMTTVQENELLKSSL [AAR2] | 2.79 ± 0.12 | 3.32 ± 0.1 | 3.12 ± 0.095 | 2.94 ± 0.13
EEITCALDYLIPPPMPK [MED7] | 1.86 ± 0.083 | 2.73 ± 0.21 | 2.06 ± 0.16 | 2.28 ± 0.071
FLQSQRQQQQRSILQSL [SWI1] | 1.8 ± 0.062 | 1.92 ± 0.073 | 1.41 ± 0.087 | 1.55 ± 0.054
DIETQLCSMLQEASQVT [MED11] | 2.73 ± 0.1 | 2.73 ± 0.11 | 2.32 ± 0.11 | 2.44 ± 0.074
DDLIHFTLKQWNRLTIS [COR1] | 1.3 ± 0.052 | 1.34 ± 0.041 | 1.27 ± 0.066 | 1.33 ± 0.043
IFIRQLKENEENEDGNI [BRR2] | 3.5 ± 0.094 | 3.37 ± 0.19 | 3.2 ± 0.067 | 2.01 ± 0.087
TMRKISSETDDDHSQVI [DSN1] | 2.91 ± 0.048 | 3.24 ± 0.064 | 3.1 ± 0.035 | 3.15 ± 0.055
NPHQKDQLIISSSANKL [YML103C/NUP188] | 2.45 ± 0.15 | 2.71 ± 0.094 | 2.29 ± 0.15 | 2.78 ± 0.069
ELLSMGNAKESKALLRE [SRP72] | 2.98 ± 0.12 | 2.81 ± 0.21 | 2.91 ± 0.19 | 3.13 ± 0.16
RCKIYFFYLRISKKLQF [PCI8] | 1.29 ± 0.06 | 1.31 ± 0.046 | 1.19 ± 0.093 | 1.35 ± 0.052
NQVMMDRKIQGWLGALT [ARP7] | 2.84 ± 0.069 | 3.18 ± 0.052 | 3 ± 0.054 | 2.98 ± 0.044
LREHFKNTEEGKALVHH [QCR6] | 2.87 ± 0.11 | 3.23 ± 0.1 | 3.34 ± 0.057 | 3.09 ± 0.099
LSVDDIRGAVGNSEAIP [RTT102] | 3.35 ± 0.053 | 3.38 ± 0.057 | 3.3 ± 0.056 | 3.41 ± 0.047
LLQKMLNLLNYQELFIQ [YML103C/NUP188] | 2.4 ± 0.053 | 1.47 ± 0.038 | 1.38 ± 0.07 | 1.52 ± 0.036
DEKEKQLAVANEIIRSL [SIR4] | 2.3 ± 0.048 | 2.25 ± 0.047 | 2.31 ± 0.069 | 1.91 ± 0.047
RPFDSFGKLLQAYQFLN [ITC1] | 1.44 ± 0.047 | 1.58 ± 0.058 | 1.48 ± 0.077 | 1.64 ± 0.053
ITSFDQDVDDAHAIDQM [POP8] | 1.55 ± 0.064 | 1.23 ± 0.061 | 1.15 ± 0.093 | 1.08 ± 0.11
ALIFIFFAYFIGWCKED [YJL039C/NUP192] | 1.84 ± 0.088 | 1.54 ± 0.062 | 2.03 ± 0.093 | 1.88 ± 0.062
SYLEERERQVNEKLADL [RPC53] | 3.2 ± 0.14 | 3.42 ± 0.16 | 3.12 ± 0.17 | 3.19 ± 0.23
YWKLWIDEPFNLDFDPR [FAS1] | 3.52 ± 0.12 | 2.84 ± 0.13 | – | 2.27 ± 0.15
LEEFEFKHGPMSLINDA [SMD2] | 3.32 ± 0.073 | 3.22 ± 0.062 | 3.14 ± 0.059 | 3.23 ± 0.055
SHLYKARLDGHDFLFNT [RPN14] | 3.37 ± 0.13 | 2.88 ± 0.076 | 3.13 ± 0.07 | 2.85 ± 0.047
LISSSQDMQLKIWSVKD [RPN14] | 2.7 ± 0.12 | 2.73 ± 0.22 | 2.56 ± 0.17 | 2.59 ± 0.1
DTLDGDLMDDMSDISDL [RPN3] | 2.71 ± 0.18 | 2.69 ± 0.076 | 2.11 ± 0.13 | 2.14 ± 0.1
IRKLTLRDTFIELDQVL [RPO21] | 2.31 ± 0.12 | 2.89 ± 0.079 | 2.7 ± 0.074 | 2.23 ± 0.11
DVLKVNTLVRPNGTKKA [RPL25] | 2.75 ± 0.087 | 2.91 ± 0.08 | 2.89 ± 0.1 | 3.26 ± 0.067

Sequence | protein stability index (doa10∆) | protein stability index (pdr5∆) | protein stability index (san1∆) | protein stability index (ubr1∆)
PMETLLSGLSADKPFTR [YML031W/NDC1] | 2.91 ± 0.05 | 3.04 ± 0.05 | 2.94 ± 0.037 | 2.85 ± 0.034
AKIISKAPEQFIENFLT [YML103C/NUP188] | 2.69 ± 0.17 | 2.94 ± 0.26 | 2.54 ± 0.2 | 2.89 ± 0.2
EVESSDTIDNVKSKIQD [RPS31] | 3.11 ± 0.21 | 2.78 ± 0.17 | 3.12 ± 0.1 | –
HTEDEQIEKKKICRGRM [SIR4] | 3.52 ± 0.17 | 3.38 ± 0.12 | 3.48 ± 0.13 | 3.16 ± 0.083
RRYDRKQSGFGGQTKPV [RPL42A] | 3.08 ± 0.084 | 3.03 ± 0.066 | 2.88 ± 0.056 | 3.148 ± 0.029
SLFQLSKLGKNLQTVHF [GRR1] | 2.2 ± 0.047 | 2.22 ± 0.051 | 1.96 ± 0.06 | 2.43 ± 0.038
DTFRWVGKKSAPEKDIW [RPO31] | 2.79 ± 0.095 | 2.88 ± 0.11 | 2.9 ± 0.067 | 3.15 ± 0.061
TPSQIGVLLRDAHGVTQ [RPS13] | 1.74 ± 0.083 | 1.81 ± 0.15 | 1.91 ± 0.13 | 2.05 ± 0.037
YWYFLQKLHKVKKASGE [RPL20A] | 3.1 ± 0.093 | 2.86 ± 0.068 | 3.13 ± 0.049 | 2.97 ± 0.063
KPANASHAIRLGNGVAC [RGR1] | 2.71 ± 0.06 | 3.06 ± 0.052 | 2.52 ± 0.058 | 3.01 ± 0.051
KPIYKDTRFGGRMDMTR [SSN2] | 3.1 ± 0.17 | 3.36 ± 0.14 | 3.33 ± 0.068 | 3.4 ± 0.14
YREAPVIYRGPEPSHID [RET1] | 2.83 ± 0.22 | 3.07 ± 0.23 | 3.21 ± 0.16 | 3.36 ± 0.16
SASLKKIQQHNTILNSS [BRR2] | 2.65 ± 0.052 | 2.93 ± 0.055 | 2.79 ± 0.032 | 2.81 ± 0.041
DDEHNPTIVGGLYYQRP [AAR2] | 2.66 ± 0.053 | 2.56 ± 0.039 | 2.62 ± 0.036 | 2.96 ± 0.04
RVVTVDGKLIDISGTMS [SMC4] | – | 3.11 ± 0.19 | 3.35 ± 0.06 | 3.52 ± 0.12
GLHKFVKGDLLQEAIDF [PRE10] | 2.93 ± 0.1 | 2.83 ± 0.079 | 3.09 ± 0.082 | 2.99 ± 0.053
KCQELVTNIRRIIQDNI [RRP46] | 2.5 ± 0.15 | 2.81 ± 0.1 | 3.08 ± 0.25 | 1.94 ± 0.11
DKVTSQAVNNLIKTLST [RPP1] | 2.53 ± 0.059 | 2.89 ± 0.078 | 2.47 ± 0.074 | 2.62 ± 0.048
ETRNGKVKNQGADVTNT [YCS4] | 3.22 ± 0.1 | 3.45 ± 0.17 | 3.11 ± 0.072 | 3.18 ± 0.076
NAEAKGLDATKLYVSHI [RPL17A] | 3.23 ± 0.16 | 3.13 ± 0.092 | 3.01 ± 0.05 | 3.03 ± 0.071
TKMFEDRREKAERTMSK [SMC2] | 3.4 ± 0.14 | 3.37 ± 0.1 | 3.22 ± 0.086 | 3.54 ± 0.088
EDGRTLSDYNIQKESTL [RPS31] | 2.92 ± 0.081 | 3.02 ± 0.066 | 3.05 ± 0.065 | 3.01 ± 0.09
PLELSAPIGKHYVVLDT [DIS3] | 2.83 ± 0.1 | 2.78 ± 0.14 | 2.63 ± 0.086 | 2.39 ± 0.11
FKGHSHIVQDCTLTADG [ASC1] | 1.67 ± 0.066 | 2.04 ± 0.087 | 2.06 ± 0.16 | 1.55 ± 0.065
VIEEDYDDEQNTSAQHV [IRR1] | 3.5 ± 0.097 | 2.95 ± 0.12 | 3.12 ± 0.08 | 3.52 ± 0.19
